# Experimental data published in patent US20210318312.
# Experiments:
# [1] = system: DLAT K259 Lipoyl peptide
# [2] = system: DLAT K259 Acetyl peptide
# Chain of recombinant SIRT5 (Sigma, cat. #SRP0119-100UG) (chain, as listed by the source): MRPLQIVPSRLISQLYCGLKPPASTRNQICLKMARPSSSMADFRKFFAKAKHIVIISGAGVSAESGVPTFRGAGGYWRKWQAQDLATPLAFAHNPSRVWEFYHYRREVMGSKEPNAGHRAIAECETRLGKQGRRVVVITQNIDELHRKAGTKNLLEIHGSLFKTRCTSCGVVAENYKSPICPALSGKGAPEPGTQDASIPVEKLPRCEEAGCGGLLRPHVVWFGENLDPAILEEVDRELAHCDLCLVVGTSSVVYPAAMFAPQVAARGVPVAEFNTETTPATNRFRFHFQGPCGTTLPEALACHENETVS
substance,measurement,setting,value
"recombinant SIRT5 (Sigma, cat. #SRP0119-100UG)",in vitro deacylation kinetics,[1],no activity was detected for DLAT lipoyl (SEQ ID NO: 8) reactions
same,in vitro deacylation kinetics,[2],"low, but detectable activity was measured for DLAT acetyl"
